Laboratory results published in patent publication US20140274782A1, “AFFINITY REAGENTS AND METHODS FOR DETECTION, PURIFICATION, AND PROTEOMIC ANALYSIS OF METHYLATED PROTEINS” (The Board of Trustees of the Leland Stanford Junior …, priority 2013, published 2014).

B1: Splicing regulatory glutamine/lysine-rich protein 1 (protein, UniProt Q8N9Q2 1-155, looked up)
Protein SREK1IP1: MAVPGCNKDSVRAGCKKCGYPGHLTFECRNFLRVDPKRDIVLDVSSTSSEDSDEENEELNKLQALQEKRINEEEEKKKEKSKEKIKLKKKRKRSYSSSSTEEDTSKQKKQKYQKKEKKKEKKSKSKKGKHHKKEKKKRKKEKHSSTPNSSEFSRK
B2: Cleavage and polyadenylation specificity factor subunit 2 (protein, UniProt Q9P2I0 1-782, looked up)
Cleavage and polyadenylation …: MTSIIKLTTLSGVQEESALCYLLQVDEFRFLLDCGWDEHFSMDIIDSLRKHVHQIDAVLLSHPDPLHLGALPYAVGKLGLNCAIYATIPVYKMGQMFMYDLYQSRHNTEDFTLFTLDDVDAAFDKIQQLKFSQIVNLKGKGHGLSITPLPAGHMIGGTIWKIVKDGEEEIVYAVDFNHKREIHLNGCSLEMLSRPSLLITDSFNATYVQPRRKQRDEQLLTNVLETLRGDGNVLIAVDTAGRVLELAQLLDQIWRTKDAGLGVYSLALLNNVSYNVVEFSKSQVEWMSDKLMRCFEDKRNNPFQFRHLSLCHGLSDLARVPSPKVVLASQPDLECGFSRDLFIQWCQDPKNSIILTYRTTPGTLARFLIDNPSEKITEIELRKRVKLEGKELEEYLEKEKLKKEAAKKLEQSKEADIDSSDESDIEEDIDQPSAHKTKHDLMMKGEGSRKGSFFKQAKKSYPMFPAPEERIKWDEYGEIIKPEDFLVPELQATEEEKSKLESGLTNGDEPMDQDLSDVPTKCISTTESIEIKARVTYIDYEGRSDGDSIKKIINQMKPRQLIIVHGPPEASQDLAECCRAFGGKDIKVYMPKLHETVDATSETHIYQVRLKDSLVSSLQFCKAKDAELAWIDGVLDMRVSKVDTGVILEEGELKDDGEDSEMQVEAPSDSSVIAQQKAMKSLFGDDEKETGEESEIIPTLEPLPPHEVPGHQSVFMNEPRLSDFKQVLLREGIQAEFVGGVLVCNNQVAVRRTETGRIGLEGCLCQDFYRIRDLLYEQYAIV
B3: Peroxiredoxin-2 (protein, UniProt P32119 2-198, looked up)
Peroxiredoxin-2: ASGNARIGKPAPDFKATAVVDGAFKEVKLSDYKGKYVVLFFYPLDFTFVCPTEIIAFSNRAEDFRKLGCEVLGVSVDSQFTHLAWINTPRKEGGLGPLNIPLLADVTRRLSEDYGVLKTDEGIAYRGLFIIDGKGVLRQITVNDLPVGRSVDEALRLVQAFQYTDEHGEVCPAGWKPGSDTIKPNVDDSKEYFSKHN
B4: Metastasis-associated protein 1 (protein)
chain: MAANMYRVGDYVYFENSSSNPYLIRRIEELNKTANGNVEAKVVCFYRRRDISSTLIALADKHATLSVCYKAGPGADNGEEGEIEEEMENPEMVDLPEKLKHQLRHRELFLSRQLESLPATHIRGKCSVTLLNETESLKSYLEREDFFFYSLVYDPQQKTLLADKGEIRVGNRYQADITDLLKEGEEDGRDQSRLETQVWEAHNPLTDKQIDQFLVVARSVGTFARALDCSSSVRQPSLHMSAAAASRDITLFHAMDTLHKNIYDISKAISALVPQGGPVLCRDEMEEWSASEANLFEEALEKYGKDFTDIQQDFLPWKSLTSIIEYYYMWKTTDRYVQQKRLKAAEAESKLKQVYIPNYNKPNPNQISVNNVKAGVVNGTGAPGQSPGAGRACESCYTTQSYQWYSWGPPNMQCRLCASCWTYWKKYGGLKMPTRLDGERPGPNRSNMSPHGLPARSSGSPKFAMKTRQAFYLHTTKLTRIARRLCREILRPWHAARHPYLPINSAAIKAECTARLPEASQSPLVLKQAVRKPLEAVLRYLETHPRPPKPDPVKSVSSVLSSLTPAKVAPVINNGSPTILGKRSYEQHNGVDGNMKKRLLMPSRGLANHGQARHMGPSRNLLLNGKSYPTKVRLIRGGSLPPVKRRRMNWIDAPDDVFYMATEETRKIRKLLSSSETKRAARRPYKPIALRQSQALPPRPPPPAPVNDEPIVIED

Experiments:
G9a and GLP = molecular target: T1, G9a and GLP (Homo sapiens, UniProt Q96KQ7+Q9H9B1); assay: Triple SILAC pull-down after UNC0638 treatment of 293T cells, DMSO/UNC0638 ratio of protein captured by 3×MBT; format: cell-based; parameters: cells were treated for 24 hours with UNC0638 at 2.5 μM or DMSO vehicle control; endogenous in cells; host or cells: HEK 293T; settings: for Protein Ratios DMSO/UNC0638: SILAC ratio of protein captured by 3xMBT, 293T cells treated 24 hours with UNC0638 at 2.5 μM or DMSO;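 as to all read-outs here: mass spectrometry (Q-Exactive) SILAC quantitation, DMSO/UNC0638 ratio computed after subtracting 3×MBTD355N mutant pull-down background, only proteins with at least twofold 3×MBT over mutant signal considered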
T1 sequence (Q96KQ7 2-1210 limits assumed): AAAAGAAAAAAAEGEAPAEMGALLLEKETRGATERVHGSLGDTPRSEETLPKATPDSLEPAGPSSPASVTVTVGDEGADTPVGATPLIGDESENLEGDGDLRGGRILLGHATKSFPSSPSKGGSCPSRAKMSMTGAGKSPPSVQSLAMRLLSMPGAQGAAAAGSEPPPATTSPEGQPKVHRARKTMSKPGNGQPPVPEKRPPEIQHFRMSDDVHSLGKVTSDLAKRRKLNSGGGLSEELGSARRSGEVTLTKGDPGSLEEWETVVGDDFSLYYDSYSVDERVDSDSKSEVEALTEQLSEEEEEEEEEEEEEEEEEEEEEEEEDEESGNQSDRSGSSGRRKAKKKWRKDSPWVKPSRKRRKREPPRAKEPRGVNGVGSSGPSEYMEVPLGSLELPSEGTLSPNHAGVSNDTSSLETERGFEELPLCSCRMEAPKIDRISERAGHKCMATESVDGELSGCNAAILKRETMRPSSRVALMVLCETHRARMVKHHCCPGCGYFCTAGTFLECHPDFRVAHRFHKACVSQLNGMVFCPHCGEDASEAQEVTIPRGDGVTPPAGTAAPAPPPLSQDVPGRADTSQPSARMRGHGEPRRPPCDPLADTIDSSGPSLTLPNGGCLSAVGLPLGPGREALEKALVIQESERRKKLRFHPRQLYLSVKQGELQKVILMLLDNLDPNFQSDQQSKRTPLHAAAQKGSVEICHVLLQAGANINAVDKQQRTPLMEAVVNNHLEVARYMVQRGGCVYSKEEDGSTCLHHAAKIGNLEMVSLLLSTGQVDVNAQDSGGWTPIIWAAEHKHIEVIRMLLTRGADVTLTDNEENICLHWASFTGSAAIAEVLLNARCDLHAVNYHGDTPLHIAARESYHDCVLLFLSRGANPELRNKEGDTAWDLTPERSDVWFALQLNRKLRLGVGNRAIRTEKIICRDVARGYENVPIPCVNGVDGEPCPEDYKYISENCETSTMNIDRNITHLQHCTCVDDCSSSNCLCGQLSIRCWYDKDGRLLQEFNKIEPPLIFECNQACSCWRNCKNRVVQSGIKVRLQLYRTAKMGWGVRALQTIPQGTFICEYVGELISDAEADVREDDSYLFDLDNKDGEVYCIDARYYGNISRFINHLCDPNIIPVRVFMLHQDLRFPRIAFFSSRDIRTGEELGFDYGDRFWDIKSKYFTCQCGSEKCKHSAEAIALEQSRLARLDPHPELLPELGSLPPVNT
T1 sequence (Q9H9B1 2-1298 limits assumed): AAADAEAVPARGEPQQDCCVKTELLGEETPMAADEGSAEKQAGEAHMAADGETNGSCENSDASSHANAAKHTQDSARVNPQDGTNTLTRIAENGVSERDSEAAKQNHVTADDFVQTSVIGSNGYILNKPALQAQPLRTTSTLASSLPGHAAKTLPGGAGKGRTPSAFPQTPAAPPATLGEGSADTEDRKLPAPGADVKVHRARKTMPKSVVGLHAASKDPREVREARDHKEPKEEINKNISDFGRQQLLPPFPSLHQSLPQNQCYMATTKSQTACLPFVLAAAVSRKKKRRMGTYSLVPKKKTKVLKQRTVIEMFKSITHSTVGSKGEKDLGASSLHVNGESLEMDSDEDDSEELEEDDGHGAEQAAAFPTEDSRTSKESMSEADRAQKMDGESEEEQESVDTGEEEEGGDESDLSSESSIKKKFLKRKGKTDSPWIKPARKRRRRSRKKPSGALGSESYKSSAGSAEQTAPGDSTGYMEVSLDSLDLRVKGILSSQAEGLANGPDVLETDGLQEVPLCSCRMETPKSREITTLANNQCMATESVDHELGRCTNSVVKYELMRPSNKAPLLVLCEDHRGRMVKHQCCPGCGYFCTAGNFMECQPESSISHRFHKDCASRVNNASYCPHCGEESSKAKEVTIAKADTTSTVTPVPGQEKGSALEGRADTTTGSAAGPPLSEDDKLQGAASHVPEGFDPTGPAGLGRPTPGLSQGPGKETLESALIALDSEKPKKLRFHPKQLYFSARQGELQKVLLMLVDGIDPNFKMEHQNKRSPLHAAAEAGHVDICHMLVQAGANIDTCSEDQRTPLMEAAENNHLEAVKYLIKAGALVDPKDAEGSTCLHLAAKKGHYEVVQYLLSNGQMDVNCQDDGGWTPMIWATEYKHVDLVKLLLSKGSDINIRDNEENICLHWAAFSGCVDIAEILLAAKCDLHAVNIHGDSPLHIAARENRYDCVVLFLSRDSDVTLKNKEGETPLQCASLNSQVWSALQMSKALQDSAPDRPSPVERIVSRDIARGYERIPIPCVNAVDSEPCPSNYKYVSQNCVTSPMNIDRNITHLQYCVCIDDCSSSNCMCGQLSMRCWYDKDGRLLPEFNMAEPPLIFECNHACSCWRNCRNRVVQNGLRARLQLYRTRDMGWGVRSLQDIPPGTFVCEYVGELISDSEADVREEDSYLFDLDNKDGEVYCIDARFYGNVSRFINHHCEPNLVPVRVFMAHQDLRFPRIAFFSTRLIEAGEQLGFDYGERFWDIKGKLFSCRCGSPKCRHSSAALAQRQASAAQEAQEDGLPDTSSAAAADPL

3×MBT domain of L3MBTL1 = assay: Triple SILAC pull-down, 3xMBT/3xMBTD355N ratio (cytoplasmic, nuclear and chromatin fractions of 293T cells); format: binding, human; settings: SILAC ratio; for Protein Ratios 3xMBT/D355N: pull-down by 3xMBT vs 3xMBTD355N, 293T cells;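 as to all read-outs here: proteins quantified with MaxQuant, requiring at least two unique peptides and quantification in both label directions, normalized to the mean of proteins from a digested loading control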

Row | Molecule | Protein Ratios DMSO/UNC0638 (G9a and GLP) | Protein Ratios 3xMBT/D355N (3×MBT domain of L3MBTL1) | Relative to UNC0638 UNC Heavy (G9a and GLP; SILAC ratio DMSO/UNC0638 of protein pulled down with 3xMBT, UNC0638 in heavy SILAC media) | Relative to UNC0638 UNC Light (G9a and GLP; SILAC ratio DMSO/UNC0638 of protein pulled down with 3xMBT, UNC0638 in light SILAC media) | Relative to UNC0638 Average (G9a and GLP; average of UNC Light and UNC Heavy experiments) | Candidate G9a/GLP target (G9a and GLP; reduced association with 3xMBT after UNC0638 treatment) | 3xMBT/D355N UNC Heavy (3×MBT domain of L3MBTL1; pull-down 3xMBT vs 3xMBTD355N, experiment with UNC0638 in heavy SILAC media) | 3xMBT/D355N UNC Light (3×MBT domain of L3MBTL1; pull-down 3xMBT vs 3xMBTD355N, experiment with UNC0638 in light SILAC media)
1 | B1 | 4.4 | 2.9 |  |  |  |  |  | 
2 | B2 | 3.1 | 8.1 |  |  |  |  |  | 
3 | B3 | 2.3 | 8.6 |  |  |  |  |  | 
4 | B4 | 1.4 | 6.0 | 0.36 log base 2 | 0.56 log base 2 | 0.46 log base 2 | ✓ | 0.90 log base 2 | 4.28 log base 2
